{
  "source": "paper PMC13330650",
  "about": "“Phosphorylation of UDP-glucose dehydrogenase increases glycosaminoglycan biosynthesis and promotes tumor cell motility, spheroid growth, and therapeutic resistance” (Matrix biology : journal of the International Society for …, 2025)",
  "proteins": {"B1": {"name": "UGDH S316D, phosphomimetic point mutant, recombinant (enzyme, human, UniProt O60701 1-494, looked up)", "chain": "MFEIKKICCIGAGYVGGPTCSVIAHMCPEIRVTVVDVNESRINAWNSPTLPIYEPGLKEVVESCRGKNLFFSTNIDDAIKEADLVFISVNTPTKTYGMGKGRAADLKYIEACARRIVQNSNGYKIVTEKSTVPVRAAESIRRIFDANTKPNLNLQVLSNPEFLAEGTAIKDLKNPDRVLIGGDETPEGQRAVQALCAVYEHWVPREKILTTNTWSSELSKLAANAFLAQRISSINSISALCEATGADVEEVATAIGMDQRIGNKFLKASVGFGGSCFQKDVLNLVYLCEALNLPEVARYWQQVIDMNDYQRRRFADRIIDSLFNTVTDKKIAILGFAFKKDTGDTRESSSIYISKYLMDEGAHLHIYDPKVPREQIVVDLSHPGVSEDDQVSRLVTISKDPYEACDGAHAVVICTEWDMFKELDYERIHKKMLKPAFIFDGRRVLDGLHNELQTIGFQIETIGKKVSSKRIPYAPSGEIPKFSLQDPPNKKPKV", "notes": "UDP-glucose 6-dehydrogenase, human"}, "B2": {"name": "UGDH S316A, phosphodeficient point mutant, recombinant (enzyme, human, UniProt O60701 1-494, looked up)", "chain": "B1 chain with D316A", "notes": "as for B1"}, "B3": {"name": "UGDH Δ132, hexameric mutant (enzyme, human)", "chain": "MFEIKKICCIGAGYVGGPTCSVIAHMCPEIRVTVVDVNESRINAWNSPTLPIYEPGLKEVVESCRGKNLFFSTNIDDAIKEADLVFISVNTPTKTYGMGKGRAADLKYIEACARRIVQNSNGYKIVTEKSTPVRAAESIRRIFDANTKPNLNLQVLSNPEFLAEGTAIKDLKNPDRVLIGGDETPEGQRAVQALCAVYEHWVPREKILTTNTWSSELSKLAANAFLAQRISSINSISALCEATGADVEEVATAIGMDQRIGNKFLKASVGFGGSCFQKDVLNLVYLCEALNLPEVARYWQQVIDMNDYQRRRFASRIIDSLFNTVTDKKIAILGFAFKKDTGDTRESSSIYISKYLMDEGAHLHIYDPKVPREQIVVDLSHPGVSEDDQVSRLVTISKDPYEACDGAHAVVICTEWDMFKELDYERIHKKMLKPAFIFDGRRVLDGLHNELQTIGFQIETIGKKV", "notes": "construct of earlier work; Named only once, as a control of the gel filtration"}, "B4": {"name": "UGDH T325D, obligate dimer mutant (enzyme, human)", "chain": "MFEIKKICCIGAGYVGGPTCSVIAHMCPEIRVTVVDVNESRINAWNSPTLPIYEPGLKEVVESCRGKNLFFSTNIDDAIKEADLVFISVNTPTKTYGMGKGRAADLKYIEACARRIVQNSNGYKIVTEKSTVPVRAAESIRRIFDANTKPNLNLQVLSNPEFLAEGTAIKDLKNPDRVLIGGDETPEGQRAVQALCAVYEHWVPREKILTTNTWSSELSKLAANAFLAQRISSINSISALCEATGADVEEVATAIGMDQRIGNKFLKASVGFGGSCFQKDVLNLVYLCEALNLPEVARYWQQVIDMNDYQRRRFASRIIDSLFNDVTDKKIAILGFAFKKDTGDTRESSSIYISKYLMDEGAHLHIYDPKVPREQIVVDLSHPGVSEDDQVSRLVTISKDPYEACDGAHAVVICTEWDMFKELDYERIHKKMLKPAFIFDGRRVLDGLHNELQTIGFQIETIGKKV", "notes": "UDP-glucose 6-dehydrogenase, human, with T325D; also called UGDH T325D dimeric mutant"}, "B5": {"name": "UDP-glucose 6-dehydrogenase (UGDH), human, wild type, recombinant (enzyme, UniProt O60701 1-494, looked up)", "chain": "B1 chain with D316S", "notes": "UDP-glucose 6-dehydrogenase, human; In solution a mix of hexamer (trimer of dimers) and dimer; also called UGDH WT; WT UGDH"}},
  "note": "Numbering of substitutions follows the chain as printed. In names and notes the source's numbering stands. Several values for one entry are separate records, joined by “and”; a condition that tells them apart may be missing. Identical values can stand only once.",
  "data": [
    {"biological_target": "the molecule itself", "experiment": "SEC; gel filtration chromatography of the purified enzyme with substrate and cofactor added (holocomplex)", "values": [
      {"protein": "B1", "stoichiometry N": 6},
      {"protein": "B2", "stoichiometry N": 6}
    ]},
    {"biological_target": "the molecule itself", "experiment": "SEC; gel filtration chromatography of the purified enzyme, before addition of substrate and cofactor; hexamer and dimer peaks", "values": [
      {"protein": "B3", "stoichiometry N": 6},
      {"protein": "B4", "stoichiometry N": 2},
      {"protein": "B5", "stoichiometry N": "6 and 2"},
      {"protein": "B1", "stoichiometry N": 2},
      {"protein": "B2", "stoichiometry N": 2}
    ]}
  ]
}
